Assay results taken from paper PMC10638201, “Application of electrospun chitosan-based nanofibers as immobilization matrix for biomolecules” (Applied Microbiology and Biotechnology, 2023).

Biological target: 6xHis-eugenol-oxidase-StrepTag-II (recombinant eugenol oxidase from Rhodococcus jostii) (Rhodococcus sp. RHA1)
Experiment: SEC; pure EUGO on Superdex 200 10/300 GL (AKTA Pure), 100 uL loaded, 0.5 mL/min, running buffer 50 mM Tris-Base pH 8 with 150 mM NaCl; size estimated from a protein standard mix (15-600 kDa)

stoichiometry N: 2
Substance: 6xHis-eugenol-oxidase-StrepTag-II (recombinant eugenol oxidase from Rhodococcus jostii) (enzyme)
